Data published in PMC11410943.

Substrate: Cn1c(=O)ccc2ccc(F)c(CCNC[C@H]3CN(c4cnc5c(n4)NC(=O)CO5)C(=O)O3)c21
Test: OAT3 transport in HEK293 cells
Assay type: in vitro ADME, human
Conditions: other: HEK293; 37.0 °C

B1: OAT3 (Homo sapiens) (protein)
chain: MTFSEILDRVGSMGHFQFLHVAILGLPILNMANHNLLQIFTAATPVHHCRPPHNASTGPWVLPMGPNGKPERCLRFVHPPNASLPNDTQRAMEPCLDGWVYNSTKDSIVTEWDLVCNSNKLKEMAQSIFMAGILIGGLVLGDLSDRFGRRPILTCSYLLLAASGSGAAFSPTFPIYMVFRFLCGFGISGITLSTVILNVEWVPTRMRAIMSTALGYCYTFGQFILPGLAYAIPQWRWLQLTVSIPFFVFFLSSWWTPESIRWLVLSGKSSKALKILRRVAVFNGKKEEGERLSLEELKLNLQKEISLAKAKYTASDLFRIPMLRRMTFCLSLAWFATGFAYYSLAMGVEEFGVNLYILQIIFGGVDVPAKFITILSLSYLGRHTTQAAALLLAGGAILALTFVPLDLQTVRTVLAVFGKGCLSSSFSCLFLYTSELYPTVIRQTGMGVSNLWTRVGSMVSPLVKITGEVQPFIPNIIYGITALLGGSAALFLPETLNQPLPETIEDLENWSLRAKKPKQEPEVEKASQRIPLQPHGPGLGSS
- Km: 121 µM
- Vmax: 76.1 pmol/mg/min
